Article PMC8097335, “A High‐Affinity Calmodulin‐Binding Site in the CyaA Toxin Translocation Domain is Essential for Invasion of Eukaryotic Cells” (Advanced Science, 2021)

Biological target: T1, calmodulin (calcium-loaded: holo-CaM) (UniProt P0DP23)
T1 construct: also called apo-CaM (without calcium)
Assay: other fluorescence titration + ITC
Conditions: both partners purified

Row | Binder | fold decrease of affinity for CaM against P454 | Kd
1 | ASAHWGQRALQGAQAVAAAQRLVSAAALMTQ [P454 H477S-I479A peptide] | ~20 fold | 
2 | ASAHAGQRAAQGAQAVAAAQRLVHAIALMTQ [P454 W458A-L463A peptide] | 4 fold | 
3 | ASAHWGQRALQGAQAVAAAQRAVSAAALMTQ [P454 L475A-H477S-I479A peptide] | ~20 fold | 
4 | ASAHWGQEALQGAQAVAAAQELVHAIALMTQ (also called TAMRA-P454 R12E) [P454 R12E peptide (P454 with R461E and R474E)] |  | 22.7 µM
